Data taken from the DeepSol protein solubility set.

experiment: soluble on expression in E. coli; label from the status in PepcDB or PDB records

Sequence	soluble on expression in E. coli
MAHHHHHHMPRDTHVLRFKVLTVECAALPDGQQYTVMYHRGNSNRSTPCYTAQGGVINFASMPEGAAVVHFKAGHGGGRFAPKYIRFMIEEYTRGMPRRLVGETEADCTQVLKDYGASGSGILTVVFRLYGTTAKMRIAVLVYPEHAPPLSFDGLIDPSEVAAPLPTQAVKVMSRGEAMMILMGLETLLERRRAMKAEGQSLPQSREEKKLAELEKRRKALVGSEGLATEVIKTRCEEVVAVQYTALARKHRNNFIGQTAAYLREMAMLAGEDFIGDDGDSSGDTVLEQLNRVNRSIEEVEMQVKKLEEEQAALRRIQHKVDVMAELTVSLDKVAALQQKMQVLKESRTALTEAMKKQAAKKNTPLAREVTAINTRIAALNAEQQQMAPRIQHMVAVAASHVVKWARSKNPPELDTKSCIDSLHETGGNARNPVDDLFSDAGKPKTSKEQSMLDDVQRKQVVEALKGLETTTAPLSTRSPTSASSSSGHRTPRDLFADAGLPSMGDFSDTKPKEEETATKRKGDTSTTPLHEDPLKPSGLGVDMFSAKPAPAAASNVPAGLPSMNDFMRSSTASRQQSAQPTFDFGSILQTSSVSPQMGGGFVLEPQPSEAAASSFAAAAPSAVSGAYQTKDYPYYDEMDDFTVPPDAADSKNYGAVEITGGIFSFQDDTSSPAYVAPRPTFDFGPSSGGDDRPSGVGVTVSPAETFSFGGGAADELSTNNPRNSSDNPYTGITNLPTYNFSS	soluble
MSDFLKLVGENIRFLRKKRGLTQEELAEQINLQQAYIGGVERGERNISMLTLQKIAVGLEVSPDEVLNFSNVNLIDNPQREESLSIITSLLHQKNVNELQFILKFLYNFSEFVESNSNK	not soluble
MANIEIYTKATCPFCHRAKALLNSKGVSFQEIAIDGDAVKREEMIKRSGRTTVPQIFIDAQHIGGCDDLYALDARGGLDPLLR	not soluble
MGSDKIHHHHHHMIKIGAHMPISKGFDRVPQDTVNIGGNSFQIFPHNARSWSAKLPSDEAATKFKREMKKHGIDWENAFCHSGYLINLASPKDDIWQKSVELLKKEVEICRKLGIRYLNIHPGSHLGTGEEEGIDRIVRGLNEVLNNTEGVVILLENVSQKGGNIGYKLEQLKKIRDLVDQRDRVAITYDTCHGFDSGYDITKKEGVEALLNEIESLFGLERLKMIHLNDSKYPLGAAKDRHERIGSGFIGEEGFAVFFSFKEIQEVPWILETPGGNEEHAEDIKKVFEIIEKFGIEVD	not soluble
MGHHHHHHSHMKTRQAFYLHTTKLTRIARRLCREILRPWHAARHPYLPINSAAIKAECTARLPEASQSPLVLKQAVRKPLEAVLRYLETHPRPPKPDPVKSVSSVLSSLTPAKVAPVINNGSPTILGKRSYEQHNGVDGNMKKRLLMPSRGTYLGLANHGQTRHMGPSRNLLLNGKSYPTKVRLIRGGSLPPVKRRRMNWIDAPDDVFYMATEETRKIRKLLSSSETKRAARRPYKPIALRQSQALPPRPPPPAPVNDEPIVIED	not soluble
MQTKNKQGVLLVNLGTPDEPTAPAVKRFLSQFLHDHRVVDMTRWLWCPILHGVILPIRSPKVAKLYESVWMEEGSPLMVYSKRQAKKLAQHLDMPVELGMTYGNPSLQSGFEALIAQGVEEVIVLPLYPQYSGTTTAAVSDGITKAFKQLPVMPAFSFIRDYHDHPMYIEALAHSVRQYWEEHGKGDYLLCSYHGIPKRYADNGDIYPQHCEATTRLLGEALGLSSDQIGMAYQSRFGREEWLQPYTDKTLETITSKGVKKIDIMTPAFSSDCLETLEEIAGENKEIFMEAGGEQFHYIPCLNDDDMHIDMMAELVRSKL	not soluble
MKFTWYGQSCFLIETSRNKKILLDPFNNSIGYPTFKGEADIITVSHHHFDHDFIDCVTNSPKVIDKPGDYKIDDITIKGIPSFHDNVHGAARGENTIFLFNIDGFNVCHLGDIGYVLSDLEVKSLGNVDVLMIPVGGNFTIDGAEAGQLCKKINSNIILPMHYKTTFTILPLEGAEKFIMSMKNAERLQSNVLTLDTKTNEKNQVKIFSIKLEHHHHHH	not soluble
MGSDKIHHHHHHMNPLAVELNDLLAQHNPHVLEMLSDLGKNLFFPKGILTQSAEAKEKAHKFNATIGIATENGGPMYLQCIQDKLSAFDPKDIYPYAPPAGKPELRSLWREKMLRENPSQQGKHFSNPIVTNALTHGLSIAGDMFLDKGDHLILPDMLWGNYNLTFGTCCGAVIRKYPTFTATGGYDVDAFKAELKNSAEEKGKAVVLLNFPNNPSGYTPTVAEGDALVAAIKEVAEGGCNIVAITDDAYFGLFYEDSLKESLFGKLANLHPRILAVKLDGATKEEFVWGFRTGFITFADGNSYENTPVMTALEKKAMGIIRARISNCPHPSQTFAIEALRSPNFIKQKQEKFQVLKGRALKTKEVLNSGKYDKAWDYYPFNSGYFMCLKLKTVDAEKLRVHMLDKYGVGAISIGKTDLRIAFSCIDEKDIPELFATIHQAVQDLS	not soluble
GMAGKVEARKAALREKLIDLAEAQIEAEGLASLRARELARQADCAVGAIYTHFQDLNALTLEVNGRTFARLGAAVGAVVADGQDDHPNERLIAMSHAYLAFAREHPKLWRALFDVEMRSDGPVPQWYGHAMAQLFSYITTPLAKIFPESDDAELDLMTRTLFSSVHGIVLLGLENRISGVPGEQLKTMIRLLLEQVGR	soluble
DNYFRIHVKKLPEENKDAQGLWTWDDVEKPSENWPNGALSFKDAKKDDYGYYLDVKLKGEQAKKISFLINNTAGKNLTGDKSVEKLVPKMNEAWLDQDYKVFSYEPQPAGTVRVNYYRTDGNYDKKSLWYWGDVKNPSSAQWPDGTDFTATGKYGRYIDIPLNEAAREFGFLLLDESKGDVKIRKENYKFTDLKNHSQIFLKDDDESIYTNPYYVHD	soluble
MSSNYATPLDDEVFPLSFANYQFTEHVSLGEHYSLNTSEDAKYNNLNGPFVVPRDTGKFDLNTSSASDETVFSLDNPQENNYKHQAMNNVQDCRMAVAAKTTQSCDKLTDLYANAAQQNYRLWLSSF	not soluble
GPMPQLTLDKTDIKILQVLQENGRLTNVELSERVALSPSPCLRRLKQLEDAGIVRQYAALLSPESVNLGLQAFIRVSIRKAKDAREDFAASVRKWPEVLSCFALTGETDYLLQAFFTDMNAFSHFVLDTLLSHHGVQDAQSSFVLKEIKHTTSLPLNHLLKE	soluble
MSRRSSSSDSAVYVNFLERERRADVEKAARLYETRRDRVEPSYVFPAPSGEKRVGPNSNTGQKGVVGSYPVSIDYLTVVFSYARLAEAGYFDEPRFLLYLLFGLSVDDVIVGSHTSVRWHFYNSSASIIDSNGDLVGKIGWDGNADSYCISLTGSACRYIHDWSKVKRSLASLDARITRCDVAYDDYDGILGTVRHHEALAREHLAPAGGCLLFSSGGTPPRTRFLDDHGGGSGCTLYVGQRGHKQLCIYEKGKQLGVAESPWVRYEVRLYAKHAVIPFDLLEEPMRYLRGSYDYLCQLFSSVVVSPVSRIRTVVKHVEATGEALVRWLRRQVGPALGVLRQALGCGFSDFIVDRVEREGLPSRFRRICRGGDLLAYLRETLIDCSVGVCV	not soluble
MEFMRVERVLLKDYTTLGVGGPAELWTVETREELKRATEAPYRVLGNGSNLLVLDEGVPERVIRLAGEFQTYDLKGWVGAGTLLPLLVQEAARAGLSGLEGLLGIPAQVGGAVKMNAGTRFGEMADALEAVEVFHDGAFHVYCPEELGFGYRKSHLPPGGIVTRVRLKLKERPKEEILRRMAEVDRARKGQPKRKSAGCAFKNPPGQSAGRLIDERGLKGLRVGDAMISLEHGNFIVNLGQARAKDVLELVRRVQEELPLELEWEVWP	soluble
MRLAVLIDADNAKADAISDLLAEVSKFGVATVKRAYGDWTTTNLQGWKKQLHKYAIQPMQQFSYTRGKNSTDASMIIDGMDLLYTGNFDGFCIVSSDCDFTRLATRFREAGLSVYGFGEKKTPEPFVAACDRFIFTEILGKGETQEKPAATGKADESAASKELLKLLRKAVAAVSGEDGWASLSNLGSHISKIRPSFDSRNYGYSKLSTLVKNLDIFETRMVPSADKLHTDVFLRLKDGKLEHHHHHH	not soluble
MSLKLYYCRGACSLVVRIILNDLGLNFQDEEVDLKVKKTAGGDDFFKINPKGAVPTLVLDNGDILTENQVILQYLADTTPGQKLLAAVGESKRYHTLEWLNYISTELHKSLGMFFNPTVSEEIKSKILTPLVMTRFAYTNTRLEKGSYLMGNEFSLPDAYLFVMVSWAKYFKLDLSQFEHLTKFMDLMLARSSVAKSLQQEKLEGHHHHHH	soluble
